Data on one molecule can be found in US20170333564A1 (UNIVERSITY OF ROCHESTER, published 2017).

The target in the experiment is IRK (IR β-chain) immunoprecipitated from HEK cell lysates (UniProt P06213 763-1382, limits assumed). Put plainly: cell-based or functional assay.

No end group written: not given here. *: point of attachment. Myristoyl = CCCCCCCCCCCCCC(=O)*

Sequence of IRK (IR β-chain) immunoprecipitated from HEK cell lysates (P06213 763-1382 limits assumed): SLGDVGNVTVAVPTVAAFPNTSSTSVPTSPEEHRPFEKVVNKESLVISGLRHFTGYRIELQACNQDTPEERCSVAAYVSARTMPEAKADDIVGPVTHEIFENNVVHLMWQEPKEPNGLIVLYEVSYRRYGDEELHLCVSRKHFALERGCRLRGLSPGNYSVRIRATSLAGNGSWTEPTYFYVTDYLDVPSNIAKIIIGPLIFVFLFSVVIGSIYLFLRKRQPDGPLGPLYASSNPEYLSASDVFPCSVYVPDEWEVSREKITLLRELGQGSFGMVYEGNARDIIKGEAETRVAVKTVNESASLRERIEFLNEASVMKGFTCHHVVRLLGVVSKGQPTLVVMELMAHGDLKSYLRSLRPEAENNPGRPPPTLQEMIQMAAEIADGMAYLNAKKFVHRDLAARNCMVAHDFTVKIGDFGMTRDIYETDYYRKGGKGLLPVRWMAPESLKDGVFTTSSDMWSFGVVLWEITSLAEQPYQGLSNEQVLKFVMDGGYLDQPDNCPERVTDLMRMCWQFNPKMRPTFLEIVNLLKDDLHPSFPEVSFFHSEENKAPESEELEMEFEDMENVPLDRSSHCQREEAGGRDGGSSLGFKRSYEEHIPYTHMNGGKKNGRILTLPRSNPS

B1: P2, myr-KYCCSRK (hBVR-based peptide) (peptide)
peptide: Myristoyl-KYCCSRK
modifications: cysteine pairing not given here
Regarding B1, the “kinase activity of IRK immunoprecipitated from HEK cells treated with 40 µM myristoylated peptide for 15 minutes, IRS peptide substrate” value was around 3 fold.
